In patent publication US20220143024A1, “METHODS OF USING IMIPRIDONES” (Board of Regents, The University of Texas System, priority 2019, published 2022):

Key:
Test in all cases: BioID-MS +ONC201
[1] = target: NDUFV3 (human) (UniProt P56181)
[2] = target: POLG (human) (UniProt P54098)
[3] = target: SLIRP (human) (UniProt Q9GZT3)
[4] = target: GPT2 (human) (UniProt Q8TD30)
[5] = target: MRPL40 (human) (UniProt Q9NQ50)
[6] = target: ECSIT (human) (UniProt Q9BQ95)
[7] = target: NDUFV2 (human) (UniProt P19404)
[8] = target: NUDT1 (human) (UniProt P36639)
[9] = target: UQCRB (human) (UniProt P14927)
[10] = target: EFHA1 (human) (UniProt Q8IYU8)
[11] = target: MRPL14 (human) (UniProt Q6P1L8)
[12] = target: COX4I1 (human) (UniProt P13073)
COX4I1 (human), sequence (P13073 23-169 limits assumed): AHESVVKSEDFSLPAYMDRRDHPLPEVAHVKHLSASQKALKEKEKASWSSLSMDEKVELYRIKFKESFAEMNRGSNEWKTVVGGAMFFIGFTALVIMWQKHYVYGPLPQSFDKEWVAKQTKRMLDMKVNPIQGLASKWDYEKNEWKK

[13] = target: K1AA0564 (human) (UniProt A3KMH1)
[14] = target: PDK3 (human) (UniProt Q15120)
[15] = target: PCK2 (human) (UniProt Q16822)
[16] = target: C8orf82 (human) (UniProt Q6P1X6)
[17] = target: CLIC4 (human) (UniProt Q9Y696)
[18] = target: MTHFD2 (human) (UniProt P13995)
[19] = target: HADH (human) (UniProt Q16836)
[20] = target: SDHB (human) (UniProt P21912)
[21] = target: PDE12 (human) (UniProt Q6L8Q7)
[22] = target: MRPL19 (human) (UniProt P49406)
[23] = target: MRPL55 (human) (UniProt Q7Z7F7)
[24] = target: OGDH (human) (UniProt Q02218)
OGDH (human), sequence (Q02218 41-1023 limits assumed): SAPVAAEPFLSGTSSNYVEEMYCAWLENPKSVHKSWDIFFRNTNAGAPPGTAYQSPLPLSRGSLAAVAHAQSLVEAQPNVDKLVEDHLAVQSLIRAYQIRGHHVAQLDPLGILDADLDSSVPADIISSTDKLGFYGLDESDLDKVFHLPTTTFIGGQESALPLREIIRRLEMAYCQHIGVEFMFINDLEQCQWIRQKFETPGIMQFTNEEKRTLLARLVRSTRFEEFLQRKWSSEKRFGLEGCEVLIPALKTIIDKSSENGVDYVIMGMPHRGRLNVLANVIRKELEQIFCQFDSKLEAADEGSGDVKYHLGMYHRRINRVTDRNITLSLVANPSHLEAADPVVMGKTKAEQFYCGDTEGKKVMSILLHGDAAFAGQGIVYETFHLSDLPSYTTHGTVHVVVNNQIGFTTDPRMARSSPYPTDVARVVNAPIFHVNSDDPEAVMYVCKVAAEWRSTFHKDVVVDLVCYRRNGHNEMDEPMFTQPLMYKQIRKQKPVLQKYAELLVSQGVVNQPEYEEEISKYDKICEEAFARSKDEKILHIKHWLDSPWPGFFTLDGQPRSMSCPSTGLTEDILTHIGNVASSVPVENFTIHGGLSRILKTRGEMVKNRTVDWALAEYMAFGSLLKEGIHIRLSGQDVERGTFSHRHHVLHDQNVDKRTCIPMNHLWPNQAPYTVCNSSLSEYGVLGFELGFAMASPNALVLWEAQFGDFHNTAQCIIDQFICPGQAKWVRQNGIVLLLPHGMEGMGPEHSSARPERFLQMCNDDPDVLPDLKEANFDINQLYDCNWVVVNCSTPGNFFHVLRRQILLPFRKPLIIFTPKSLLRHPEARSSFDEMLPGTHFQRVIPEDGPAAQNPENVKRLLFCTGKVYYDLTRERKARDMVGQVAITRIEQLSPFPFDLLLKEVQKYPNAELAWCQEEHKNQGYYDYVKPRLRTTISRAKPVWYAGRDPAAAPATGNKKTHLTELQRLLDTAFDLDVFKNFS

[25] = target: NIPSNAP2 (human) (UniProt O75323)
[26] = target: MRM3 (human) (UniProt Q9HC36)
[27] = target: OXA1L (human) (UniProt Q15070)
[28] = target: IDI1 (human) (UniProt Q13907)
[29] = target: SFXN4 (human) (UniProt Q6P4A7)
SFXN4 (human), sequence (Q6P4A7 2-337 limits assumed): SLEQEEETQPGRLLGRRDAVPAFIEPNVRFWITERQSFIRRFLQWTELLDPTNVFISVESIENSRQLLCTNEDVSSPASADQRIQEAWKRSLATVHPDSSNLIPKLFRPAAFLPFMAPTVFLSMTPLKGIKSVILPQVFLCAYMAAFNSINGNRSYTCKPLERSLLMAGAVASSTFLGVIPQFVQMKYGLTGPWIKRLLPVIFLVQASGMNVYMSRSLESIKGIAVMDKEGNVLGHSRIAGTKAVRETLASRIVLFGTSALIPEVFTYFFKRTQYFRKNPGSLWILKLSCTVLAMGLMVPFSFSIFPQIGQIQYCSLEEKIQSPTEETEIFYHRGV

[30] = target: GFM1 (human) (UniProt Q96RP9)
[31] = target: NDUFAF3 (human) (UniProt Q9BU61)
NDUFAF3 (human), sequence (Q9BU61 whole entry): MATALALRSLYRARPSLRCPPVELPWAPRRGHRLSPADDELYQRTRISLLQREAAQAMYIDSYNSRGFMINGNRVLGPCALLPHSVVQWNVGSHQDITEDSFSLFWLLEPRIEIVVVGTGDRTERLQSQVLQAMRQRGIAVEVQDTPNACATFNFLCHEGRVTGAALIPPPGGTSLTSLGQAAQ

[32] = target: NDUFAF2 (human) (UniProt Q8N183)
NDUFAF2 (human), sequence (Q8N183 whole entry): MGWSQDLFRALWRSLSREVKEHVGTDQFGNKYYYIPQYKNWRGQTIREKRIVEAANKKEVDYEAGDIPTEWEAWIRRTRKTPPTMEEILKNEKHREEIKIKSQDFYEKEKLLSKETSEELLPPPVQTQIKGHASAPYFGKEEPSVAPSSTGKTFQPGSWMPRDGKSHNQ

[33] = target: ETFB (human) (UniProt P38117)
[34] = target: METTL17 (human) (UniProt Q9H7H0)
METTL17 (human), sequence (Q9H7H0 28-456 limits assumed): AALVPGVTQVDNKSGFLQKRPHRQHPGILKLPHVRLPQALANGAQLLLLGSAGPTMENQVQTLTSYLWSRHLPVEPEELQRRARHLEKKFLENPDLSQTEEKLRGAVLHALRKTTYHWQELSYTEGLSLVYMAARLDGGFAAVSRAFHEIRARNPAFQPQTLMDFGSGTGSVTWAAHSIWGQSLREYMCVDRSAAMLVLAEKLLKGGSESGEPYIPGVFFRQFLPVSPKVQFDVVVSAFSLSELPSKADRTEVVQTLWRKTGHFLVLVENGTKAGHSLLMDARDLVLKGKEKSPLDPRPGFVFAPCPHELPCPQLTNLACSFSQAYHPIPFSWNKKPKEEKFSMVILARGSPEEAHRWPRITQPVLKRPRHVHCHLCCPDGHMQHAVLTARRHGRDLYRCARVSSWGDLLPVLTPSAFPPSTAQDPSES

[35] = target: ATPAF2 (human) (UniProt Q8N5M1)
ATPAF2 (human), sequence (Q8N5M1 41-289 limits assumed): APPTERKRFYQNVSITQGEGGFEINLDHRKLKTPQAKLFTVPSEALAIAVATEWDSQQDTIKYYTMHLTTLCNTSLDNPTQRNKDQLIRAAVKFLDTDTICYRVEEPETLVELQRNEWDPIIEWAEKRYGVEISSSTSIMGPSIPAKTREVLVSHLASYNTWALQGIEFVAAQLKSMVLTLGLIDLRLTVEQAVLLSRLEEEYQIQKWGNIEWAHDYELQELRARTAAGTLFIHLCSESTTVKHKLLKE

[36] = target: ACAA2 (human) (UniProt P42765)
[37] = target: MRPS11 (human) (UniProt P82912)
[38] = target: MRPL10 (human) (UniProt Q7Z7H8)
[39] = target: C20orf72 (human) (UniProt Q9BQP7)
[40] = target: CARS2 (human) (UniProt Q9HA77)
CARS2 (human), sequence (Q9HA77 whole entry): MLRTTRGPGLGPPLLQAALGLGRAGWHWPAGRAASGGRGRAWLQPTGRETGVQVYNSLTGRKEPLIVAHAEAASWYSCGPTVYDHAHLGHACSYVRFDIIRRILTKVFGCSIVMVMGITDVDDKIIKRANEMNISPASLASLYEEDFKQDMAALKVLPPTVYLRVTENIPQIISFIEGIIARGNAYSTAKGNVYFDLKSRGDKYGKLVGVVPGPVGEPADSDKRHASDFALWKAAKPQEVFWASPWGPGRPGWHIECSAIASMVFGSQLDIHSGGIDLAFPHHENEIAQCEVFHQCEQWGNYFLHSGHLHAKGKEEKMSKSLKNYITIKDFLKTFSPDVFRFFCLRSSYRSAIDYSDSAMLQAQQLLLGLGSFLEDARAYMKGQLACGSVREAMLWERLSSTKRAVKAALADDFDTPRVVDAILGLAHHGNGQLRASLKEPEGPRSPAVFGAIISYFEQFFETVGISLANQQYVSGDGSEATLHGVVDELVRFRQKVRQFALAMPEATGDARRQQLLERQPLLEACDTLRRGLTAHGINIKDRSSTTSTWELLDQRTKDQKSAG

[41] = target: ABAT (human) (UniProt P80404)
[42] = target: NDUFAF5 (human) (UniProt Q5TEU4)
NDUFAF5 (human), sequence (Q5TEU4 37-345 limits assumed): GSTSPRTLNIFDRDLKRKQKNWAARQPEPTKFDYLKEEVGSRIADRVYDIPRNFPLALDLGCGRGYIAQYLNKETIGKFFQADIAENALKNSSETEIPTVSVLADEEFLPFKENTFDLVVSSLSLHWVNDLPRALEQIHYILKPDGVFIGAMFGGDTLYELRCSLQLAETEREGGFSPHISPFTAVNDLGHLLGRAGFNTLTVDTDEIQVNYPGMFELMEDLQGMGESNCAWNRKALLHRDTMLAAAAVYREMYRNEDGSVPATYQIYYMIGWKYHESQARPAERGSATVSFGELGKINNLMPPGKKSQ

[43] = target: VWA8 (human) (UniProt A3KMH1)
[44] = target: COX5B (human) (UniProt P10606)
[45] = target: MRPS36 (human) (UniProt P82909)
[46] = target: PITRM1 (human) (UniProt Q5JRX3)
[47] = target: PIN1 (human) (UniProt Q13526)
PIN1 (human), sequence (Q13526 whole entry): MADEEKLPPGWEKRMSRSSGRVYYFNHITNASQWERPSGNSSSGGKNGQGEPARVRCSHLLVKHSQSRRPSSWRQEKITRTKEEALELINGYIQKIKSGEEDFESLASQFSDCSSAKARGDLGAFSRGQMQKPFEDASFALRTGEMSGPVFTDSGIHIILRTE

[48] = target: MRPL44 (human) (UniProt Q9H9J2)
[49] = target: COQ8A (human) (UniProt Q8NI60)
[50] = target: HSDL2 (human) (UniProt Q6YN16)
HSDL2 (human), sequence (Q6YN16 whole entry): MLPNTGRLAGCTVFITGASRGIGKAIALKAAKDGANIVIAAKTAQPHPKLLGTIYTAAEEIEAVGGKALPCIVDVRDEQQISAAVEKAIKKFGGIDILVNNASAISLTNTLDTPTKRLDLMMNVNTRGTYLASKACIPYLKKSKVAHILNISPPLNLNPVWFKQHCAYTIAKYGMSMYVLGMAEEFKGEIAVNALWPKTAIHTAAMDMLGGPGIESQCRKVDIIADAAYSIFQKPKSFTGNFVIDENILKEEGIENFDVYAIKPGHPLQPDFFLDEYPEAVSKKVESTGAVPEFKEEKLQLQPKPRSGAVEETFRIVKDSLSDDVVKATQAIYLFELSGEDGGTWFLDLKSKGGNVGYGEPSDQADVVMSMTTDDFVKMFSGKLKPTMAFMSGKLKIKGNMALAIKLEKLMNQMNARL

[51] = target: BCKDHA (human) (UniProt P12694)

ECSIT (human), sequence (Q9BQ95 49-431 limits assumed): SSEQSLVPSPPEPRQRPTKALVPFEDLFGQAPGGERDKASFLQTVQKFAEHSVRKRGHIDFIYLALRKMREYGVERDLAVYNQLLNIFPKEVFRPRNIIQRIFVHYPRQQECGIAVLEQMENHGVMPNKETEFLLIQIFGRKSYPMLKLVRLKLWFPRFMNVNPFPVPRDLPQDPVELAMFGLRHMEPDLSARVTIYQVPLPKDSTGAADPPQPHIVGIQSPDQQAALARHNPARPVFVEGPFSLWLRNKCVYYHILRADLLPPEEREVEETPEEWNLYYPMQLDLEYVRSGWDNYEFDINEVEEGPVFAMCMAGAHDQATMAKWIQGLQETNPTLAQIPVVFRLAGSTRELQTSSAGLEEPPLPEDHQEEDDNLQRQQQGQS
GPT2 (human), sequence (Q8TD30 whole entry): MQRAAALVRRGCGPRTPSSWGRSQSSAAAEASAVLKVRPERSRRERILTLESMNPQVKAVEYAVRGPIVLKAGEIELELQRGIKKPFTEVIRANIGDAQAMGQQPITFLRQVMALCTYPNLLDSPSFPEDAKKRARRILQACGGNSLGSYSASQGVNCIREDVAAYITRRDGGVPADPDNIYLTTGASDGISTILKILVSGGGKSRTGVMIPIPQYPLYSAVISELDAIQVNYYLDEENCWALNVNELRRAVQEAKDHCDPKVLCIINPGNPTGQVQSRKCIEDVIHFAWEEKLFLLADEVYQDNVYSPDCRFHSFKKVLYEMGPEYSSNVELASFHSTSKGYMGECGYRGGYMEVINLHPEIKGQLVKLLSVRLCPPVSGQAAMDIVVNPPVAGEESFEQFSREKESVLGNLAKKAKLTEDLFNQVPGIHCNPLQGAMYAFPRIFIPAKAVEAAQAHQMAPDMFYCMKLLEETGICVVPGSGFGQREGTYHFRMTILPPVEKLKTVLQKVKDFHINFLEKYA

Substance: FlagBirA-ClpP (WT) (from UniProt P06709 1-321; Q16740 57-277) (enzyme)
- Log2 Fold change (vs control) [1]: -8.18 log2
- Log2 Fold change (vs control) [2]: -4.32 log2
- Log2 Fold change (vs control) [3]: -0.25 log2
- Log2 Fold change (vs control) [4]: -3.7 log2
- Log2 Fold change (vs control) [5]: -5.09 log2
- Log2 Fold change (vs control) [6]: -5.36 log2
- Log2 Fold change (vs control) [7]: -5.96 log2
- Log2 Fold change (vs control) [8]: -1 log2
- Log2 Fold change (vs control) [9]: -4.7 log2
- Log2 Fold change (vs control) [10]: -0.47 log2
- Log2 Fold change (vs control) [11]: -3.46 log2
- Log2 Fold change (vs control) [12]: -2.74 log2
- Log2 Fold change (vs control) [13]: -0.71 log2
- Log2 Fold change (vs control) [14]: -1.55 log2
- Log2 Fold change (vs control) [15]: -5.32 log2
- Log2 Fold change (vs control) [16]: -1.19 log2
- Log2 Fold change (vs control) [17]: -0.49 log2
- Log2 Fold change (vs control) [18]: -1.43 log2
- Log2 Fold change (vs control) [19]: -1.3 log2
- Log2 Fold change (vs control) [20]: -0.82 log2
- Log2 Fold change (vs control) [21]: -5.78 log2
- Log2 Fold change (vs control) [22]: -3.51 log2
- Log2 Fold change (vs control) [23]: -5.25 log2
- Log2 Fold change (vs control) [24]: -3.7 log2
- Log2 Fold change (vs control) [25]: -0.31 log2
- Log2 Fold change (vs control) [26]: -1.62 log2
- Log2 Fold change (vs control) [27]: -3 log2
- Log2 Fold change (vs control) [28]: -0.22 log2
- Log2 Fold change (vs control) [29]: -0.58 log2
- Log2 Fold change (vs control) [30]: -1.08 log2
- Log2 Fold change (vs control) [31]: -0.73 log2
- Log2 Fold change (vs control) [32]: -7.94 log2
- Log2 Fold change (vs control) [33]: -1.35 log2
- Log2 Fold change (vs control) [34]: -3.58 log2
- Log2 Fold change (vs control) [35]: -2.58 log2
- Log2 Fold change (vs control) [36]: -0.88 log2
- Log2 Fold change (vs control) [37]: -4.25 log2
- Log2 Fold change (vs control) [38]: -4.46 log2
- Log2 Fold change (vs control) [39]: -3.52 log2
- Log2 Fold change (vs control) [40]: -0.21 log2
- Log2 Fold change (vs control) [41]: -2.58 log2
- Log2 Fold change (vs control) [42]: -0.68 log2
- Log2 Fold change (vs control) [43]: 1.69 log2
- Log2 Fold change (vs control) [44]: -5 log2
- Log2 Fold change (vs control) [45]: -2.58 log2
- Log2 Fold change (vs control) [46]: -4.25 log2
- Log2 Fold change (vs control) [47]: -0.11 log2
- Log2 Fold change (vs control) [48]: -5.04 log2
- Log2 Fold change (vs control) [49]: -4.74 log2
- Log2 Fold change (vs control) [50]: -0.71 log2
- Log2 Fold change (vs control) [51]: -4.32 log2
